Experiments:
[1] = target: T1, H1-NTD (hybrid binding domain) (UniProt O60930 27-73); experiment: thermal shift
T1 chain: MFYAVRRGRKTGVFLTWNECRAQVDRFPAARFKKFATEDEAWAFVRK

[2] = target: T2, P54nrb (UniProt Q15233 1-471); experiment: thermal shift
T2 sequence: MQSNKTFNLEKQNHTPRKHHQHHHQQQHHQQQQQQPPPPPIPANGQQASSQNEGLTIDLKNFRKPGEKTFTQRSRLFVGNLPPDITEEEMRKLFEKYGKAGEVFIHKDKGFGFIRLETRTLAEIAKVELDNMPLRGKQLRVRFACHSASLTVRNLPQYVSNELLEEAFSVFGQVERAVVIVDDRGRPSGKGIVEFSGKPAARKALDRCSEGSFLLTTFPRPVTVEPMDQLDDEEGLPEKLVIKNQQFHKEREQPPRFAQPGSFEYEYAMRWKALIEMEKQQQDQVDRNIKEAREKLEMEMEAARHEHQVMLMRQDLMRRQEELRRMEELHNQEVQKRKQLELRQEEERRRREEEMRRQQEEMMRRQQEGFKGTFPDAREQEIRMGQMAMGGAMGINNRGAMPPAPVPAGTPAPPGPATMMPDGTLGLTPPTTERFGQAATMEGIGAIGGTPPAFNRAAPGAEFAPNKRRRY

GCTAGCCTCTGGATTT (XNA, PS; 3-10-3 2'-F gapmer) [760614 3-10-3 F PS-ASO]: binds [1].

CTGCTAGCCTCTGGATTTGA (XNA, PS; 5-10-5 2'-F gapmer) [404130 5-10-5 F PS-ASO]: binds [2].
